Data published in publication PMC10104896 (2023).
Where no end group is shown, it is not given here.

Key:
[1] = molecular target: T1, 12mTau-acK280 peptide (human); assay: BLI
T1 chain: VQIINK(Ac)KLDLSN

[2] = molecular target: T1, 12mTau-acK280 peptide; assay: BLI

Kd [1]: 0.257 nM | koff [2]: 0.000115 s⁻¹
B1: Y01, monoclonal anti–tau-acK280 antibody (antibody, V domains shown)
VH: QVQLQESGPGLVKPSQTLSLTCTVSGDSITSGYWNWIRQPPGKGLEYIGYIRYSGRTYYNPSLKSRVTISRDTSKNQFSLKLSSVTAADTAVYYCASVYFTYWGQGTLVTVSS
VL: DVVMTQTPLSLPVTLGQPASISCKSSQSLLDSDGKTYLNWFQQRPGQSPKRLISLVSKLDSGVPDRFSGSGSGTDFTLKISRVEAEDVGVYYCWQGSHFPYTFGQGTKLEIK
